Our source for the Km and Vmax values is patent US6465220B1, “Glycosylation using GalNac-T4 transferase” (GlycoZym ApS, priority 1998, dated 2002).

Substrate in the data set: C[C@H](NC(=O)[C@H](C)NC(=O)[C@@H](NC(=O)[C@@H](NC(=O)[C@H](CCC(=O)O)NC(=O)[C@@H]1CCCN1C(=O)[C@@H]1CCCN1C(=O)[C@H](C)NC(=O)[C@H](CO)NC(=O)[C@H](CO)NC(=O)[C@H](CO)NC(=O)[C@@H]1CCCN1C(=O)[C@@H]1CCCN1C(=O)[C@H](C)NC(=O)[C@@H]1CCCN1C(=O)[C@@H](NC(=O)[C@@H](NC(=O)[C@H](C)NC(=O)[C@H](CO)NC(=O)[C@@H]1CCCN1C(=O)[C@@H](NC(=O)[C@@H]1CCCN1C(=O)[C@@H]1CCCN1C(=O)[C@@H](N)CS)[C@@H](C)O)[C@@H](C)O)[C@@H](C)O)[C@@H](C)O)[C@@H](C)O)C(=O)O
The data set is described as follows: GalNAc-transferase assay with purified recombinant GalNAc-T1. In kind it is biochemical, human. The following applies: other: acceptor substrate; pH 7.5. The method, then: The following examples are provided to illustrate certain preferred embodiments of the invention, and should be considered as illustration and not as limitation. In the examples, GalNAc-transferase assays were performed in 50 μl total reaction mixtures containing 25 mM cacodylate (pH 7.5), 10 mM MnCl2, 0.1-0.25% Triton X-100, 150-200 μM UDP-[^14C]-GalNAc (4,000 cpm/nmole) (Amersham) and 0.06-1 mM acceptor peptides. Peptides were either synthesized or obtained from Carlbiotech (Copenhagen), or Neosystems (Strasbourg), and quality was ascertained by amino acid analysis and mass spectrometry. Peptides Muc-1a, Muc-1b, and TAP24, were derived from the tandem repeat of human MUC1, Gendler et al., J. Biol. Chem. 265:15286 (1990), and Muc2, Muc5AC, and Muc7 from the tandem repeats of MUC2, MUC5AC, and MUC7, respectively. Gum et al., J. Biol. Chem. 264:6480 (1989); Porchet et al., Biochem. Soc. Trans. 23:800 (1995); Bobek et al., J. Biol. Chem. 268:20563 (1993). GalNAc4TAP24 was produced by in vitro glycosylation using GalNAc-T2 as described in Wandall et al., J. Biol. Chem. 272:23503 (1997). Products were quantified by scintillation counting after chromatography on Dowex-1, octadecyl silica cartridges (Bakerbond), or HPLC (PC3.2/3 or mRPC C2/C18 SC2.1/10 Pharmacia, Smart System). Products produced by in vitro glycosylation were in most cases also confirmed by mass spectrometry. […]

B1: GalNAc-T1 (Homo sapiens) (protein)
chain: GLPAGDVLEPVQKPHEGPGEMGKPVVIPKEDQEKMKEMFKINQFNLMASEMIALNRSLPDVRLEGCKTKVYPDNLPTTSVVIVFHNEAWSTLLRTVHSVINRSPRHMIEEIVLVDDASERDFLKRPLESYVKKLKVPVHVIRMEQRSGLIRARLKGAAVSKGQVITFLDAHCECTVGWLEPLLARIKHDRRTVVCPIIDVISDDTFEYMAGSDMTYGGFNWKLNFRWYPVPQREMDRRKGDRTLPVRTPTMAGGLFSIDRDYFQEIGTYDAGMDIWGGENLEISFRIWQCGGTLEIVTCSHVGHVFRKATPYTFPGGTGQIINKNNRRLAEVWMDEFKNFFYIISPGVTKVDYGDISSRVGLRHKLQCKPFSWYLENIYPDSQIPRHYFSLGEIRNVETNQCLDNMARKENEKVGIFNCHGMGGNQVFSYTANKEIRTDDLCLDVSKLNGPVTMLKCHHLKGNQLWEYDPVKLTLQHVNSNQCLDKATEEDSQVPSIRDCNGSRSQQWLLRNVTLPEIF
notes: Control constructs pAcGP67-GalNAc-T1-sol, pAcGP67-GalNAc-T2-sol, pAcGP67-GalNAc-T3-sol, and pAcGP67-O^2-sol were prepared as previously described; made in house; host or cells: insect cells (baculovirus, pAcGP67)
Usually Km stands for the concentration of substrate that gives half-maximal velocity. For the protein B1, the Michaelis-Menten constant (Km) is 40 µM and the Vmax turned out to be 0.76 nmol/min/µg.
